The source of these data is paper PMC8699718, “A structurally conserved site in AUP1 binds the E2 enzyme UBE2G2 and is essential for ER-associated degradation” (PLoS Biology, 2021).

The target in this experiment is T1, gp78 RING (Homo sapiens, UniProt Q9UKV5).
T1 construct: The gp78-RING construct (aa 313 to 393) was generated by inserting a stop codon; GST (pGEX-4T-2 vector) (N); made in house
Put plainly: NMR titration (1H-15N HSQC CSP) of 15N-UBE2G2 with or without G2BR with gp78 RING. It counts as binding. To be noted: overall value; 15N-UBE2G2 150 μM, gp78 RING 0-450 μM, 50 mM Tris-Cl pH 7.0, 0.5 mM TCEP, 100 μM zinc sulfate, 0.05% sodium azide; G2BR 1:1.1 where present; read-out: affinity for gp78 RING (Kd) by NMR CSP. As for the experimental part: Fig 5 Titration of UBE2G2:G2BR with gp78 RING. Superposition of ^15N-^1H^N HSQC NMR spectra for apo-UBE2G2 and UBE2G2 bound to G2BR^AUP1 (A) or G2BR^gp78 (B). Spectra for UBE2G2 (150 μM) bound to G2BR were acquired at a 1:1.1 ratio. (C) Superposition of the spectra for apo-UBE2G2, UBE2G2:G2BR^AUP1, and UBE2G2:G2BR^gp78, illustrating the equivalence of perturbations between G2BR^AUP1 and G2BR^gp78. (D) Expansion of overlaid resonances corresponding to UBE2G2 residues showing fast exchange binding kinetics for gp78 RING binding to both UBE2G2:G2BR^AUP1 (left panels) and UBE2G2:G2BR^gp78 (right panels). Spectra were acquired at ratios of RING to UBE2G2:G2BR of 0, 0.33, 0.67, 1.0, 2.0, and 3.0. […]
UBE2G2 and gp78 RING used in titration experiments were expressed and purified as previously described. […] The changes in chemical shift for each peak in the 2D spectrum upon gp78 RING binding was calculated using the following CSP equation: ΔCSP=(ΔδN/5)^2+(ΔδH)^2/2 (1)
The CSPs calculated from Eq 1 were plotted versus the molar ratio of gp78 RING to UBE2G2:G2BR, and the data were fit using the following equation to calculate the dissociation constant (Kd), where x is the ligand-to-protein ratio: ΔCSP=ΔCSPmax/2*1+x+Kd/P−(1+x+Kd)^2/P−4x (2)

T1 sequence (Q9UKV5 313-393, one chain of several): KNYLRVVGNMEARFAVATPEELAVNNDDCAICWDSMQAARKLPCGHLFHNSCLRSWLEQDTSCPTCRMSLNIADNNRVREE

B1: UBE2G2: ERAD ubiquitin-conjugating enzyme (E2); purified in vitro, N-terminally MYC-tagged in cells (protein)
chain: MAGTALKRLMAEYKQLTLNPPEGIVAGPMNEENFFEWEALIMGPEDTCFEFGVFPAILSFPLDYPLSPPKMRFTCEMFHPNIYPDGRVCISILHAPGDDPMGYESSAERWSPVQSVEKILLSVVSMLAEPNDESGANVDASKMWRDDREQFYKIAKQIVQKSLGL
What is called Kd is the constant that tells how readily two partners part at equilibrium. Turning to B1, the Kd was 207 ± 6.4 µM.
